{"source": "patent US20220348925", "about": "“COMPOSITIONS AND METHODS FOR THE TARGETING OF SOD1” (Scribe Therapeutics Inc., published 2022)", "target": "T1, CasX 119 (in cells) (Planctomycetes)", "T1 chain": "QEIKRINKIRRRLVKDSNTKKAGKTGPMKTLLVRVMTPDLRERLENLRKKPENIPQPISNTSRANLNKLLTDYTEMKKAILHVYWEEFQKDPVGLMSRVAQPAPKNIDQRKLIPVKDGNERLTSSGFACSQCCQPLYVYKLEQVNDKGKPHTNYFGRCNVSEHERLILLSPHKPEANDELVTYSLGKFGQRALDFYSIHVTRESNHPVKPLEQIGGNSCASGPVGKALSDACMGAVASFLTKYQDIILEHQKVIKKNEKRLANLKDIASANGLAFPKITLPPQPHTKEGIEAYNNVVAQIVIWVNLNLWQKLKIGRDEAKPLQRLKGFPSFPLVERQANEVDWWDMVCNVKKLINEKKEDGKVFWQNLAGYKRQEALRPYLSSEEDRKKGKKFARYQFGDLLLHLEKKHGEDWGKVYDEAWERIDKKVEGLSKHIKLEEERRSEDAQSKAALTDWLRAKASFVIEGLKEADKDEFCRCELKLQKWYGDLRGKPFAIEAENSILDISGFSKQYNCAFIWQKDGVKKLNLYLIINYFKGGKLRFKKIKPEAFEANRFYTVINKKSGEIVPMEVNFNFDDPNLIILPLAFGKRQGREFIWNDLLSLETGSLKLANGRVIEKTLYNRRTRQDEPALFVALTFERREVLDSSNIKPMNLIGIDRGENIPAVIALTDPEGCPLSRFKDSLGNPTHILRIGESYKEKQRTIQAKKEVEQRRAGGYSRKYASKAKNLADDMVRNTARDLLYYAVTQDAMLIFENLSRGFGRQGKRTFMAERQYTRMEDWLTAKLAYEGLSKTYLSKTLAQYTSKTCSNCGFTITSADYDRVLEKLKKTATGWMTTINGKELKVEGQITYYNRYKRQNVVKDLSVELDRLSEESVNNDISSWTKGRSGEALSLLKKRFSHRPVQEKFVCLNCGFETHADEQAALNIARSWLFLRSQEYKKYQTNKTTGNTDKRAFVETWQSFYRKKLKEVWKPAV", "assay": "cell_activity; TTC PAM; SOD1-GFP reporter, GFP disruption", "details": "tags: NLS", "text": "A SOD1-GFP reporter line was constructed by knocking in GFP at the endogenous human SOD1 locus, shown schematically in FIG. 19. A reporter (e.g., GFP reporter) coupled to a gRNA targeting sequence, complementary to the gRNA spacer, is integrated into a reporter cell line. Cells are transformed or transfected with a CasX protein and/or sgRNA variant, with the spacer motif of the sgRNA complementary to and targeting the gRNA target sequence of the reporter. The ability of the CasX:sgRNA ribonucleoprotein complex to cleave the target nucleic acid sequence is assayed by FACS. Cells that lose reporter expression indicate occurrence of CasX:sgRNA ribonucleoprotein complex-mediated cleavage and indel formation. The reporting system is based on reduced GFP fluorescence upon successful modifying (editing) of the SOD1 locus, detected by flow cytometry as shown in FIG. 20.\nCasX 2 (SEQ ID NO:2) and guide 2 (SEQ ID NO:5) (labeled here as StX) and CasX 119 molecule and rRNA guide 64 (119.64) (labeled here as EvoXI) with SOD1 targeting spacers (2, with an encoding sequence of […] (SEQ ID NO: 310), and spacer 4, with an encoding sequence of […] (SEQ ID NO: 366)), were lipofected into SOD1-GFP reporter cells, selected for successful lipofection using puromycin, and later assayed for GFP disruption via FACS."}
{"binder": "sgRNA 64 SOD1 spacer 2 ; SOD1 exon 2 site (spacer 2) (ssRNA ; dsDNA) RNA: GUACUGGCGCCUUUAUCUCAUUACUUUGAGAGCCAUCACCAGCGACUAUGUCGUAUGGGUAAAGCGCUUACGGACUUCGGUCCGUAAGAAGCAUCAAAGAUGUUCAUGAGUUUGGAGAU DNA 1: ATGTTCATGAGTTTGGAGAT DNA 2: ATCTCCAAACTCATGAACAT", "values": [{"measurement": "binding signal", "value": 35, "unit": "fold vs CasX2 guide 2"}]}
